The record followed here is publication PMC7593816.

Experiment [1] deals with HTR2A N107A^2.37 mutant (human) (UniProt P28223).
Experiment [2] deals with HTR2A R185A^ICL2 mutant (human) (UniProt P28223).

For the substance “Gαq wild-type (GαrLuc8 of the BRET2 assay) (from UniProt P50148 1-359) (natural protein)”, the BRET2 assay, decrease of the efficacy of 25CN-NBOH in experiment [1] and in experiment [2] was 50% each time.
